Results taken from the RNAGym collection of RNA variant scans (doi:10.7554/elife.80360).

B1: Hairpin Ribozyme (parent)
chain: GUCCUCUUUCACGUGCGCGUGAAAGAGAGAAGUGAACCAGAGAAACACACGUUGUGGUAUAUUACCUGGUA

Variants of: B1
Assay: self-cleavage, relative activity (ratio to wild type); higher = more cleavage; co-transcriptional

Q: With G27U G32U as the variant, how does the self-cleavage read?
A: 0.211

Q: Which self-cleavage does the source give for G32C A39C here?
A: 0.135

Q: For G42A A43C, which self-cleavage is on record?
A: 0.127

Q: For C3G U58C, which self-cleavage is on record?
A: 0.311

Q: For G27C U58G, which self-cleavage is on record?
A: 0.188

Q: With C18G G27C as the variant, how does the self-cleavage read?
A: 0.0884

Q: For G17U A41U, which self-cleavage is on record?
A: 1.51

Q: For A31U A45U, which self-cleavage is on record?
A: 0.131

Q: Which self-cleavage does the source give for U8A U55A here?
A: 0.184

Q: Which self-cleavage does the source give for A22G A41U here?
A: 0.921

Q: With A35C U60C as the variant, how does the self-cleavage read?
A: 1.14

Q: With C65U G68A as the variant, how does the self-cleavage read?
A: 0.249

Q: For U7C C66U, which self-cleavage is on record?
A: 0.542

Q: Which self-cleavage does the source give for G13U C37G here?
A: 0.384

Q: Which self-cleavage does the source give for U9C G34A here?
A: 0.812

Q: With G21A A47U as the variant, how does the self-cleavage read?
A: 0.162

Q: Which self-cleavage does the source give for A31G G54C here?
A: 0.276

Q: For U52G U55G, which self-cleavage is on record?
A: 0.398

Q: Which self-cleavage does the source give for A31C U60C here?
A: 0.188

Q: With G27A C38G as the variant, how does the self-cleavage read?
A: 0.0969

Q: For C4U U7A, which self-cleavage is on record?
A: 0.296

Q: Which self-cleavage does the source give for A28U A49U here?
A: 0.111

Q: With G15U A71U as the variant, how does the self-cleavage read?
A: 0.923

Q: For G15C C37G, which self-cleavage is on record?
A: 0.298

Q: Which self-cleavage does the source give for A47U C65G here?
A: 0.139

Q: With U5A A49C as the variant, how does the self-cleavage read?
A: 0.124

Q: Which self-cleavage does the source give for U2A A24C here?
A: 0.134

Q: With A11G U62A as the variant, how does the self-cleavage read?
A: 0.154

Q: With G27A G51C as the variant, how does the self-cleavage read?
A: 0.238

Q: Which self-cleavage does the source give for G32C C48U here?
A: 0.169

Q: Which self-cleavage does the source give for C12G A23C here?
A: 0.511

Q: For G17U A61C, which self-cleavage is on record?
A: 0.161

Q: Which self-cleavage does the source give for U33G G42C here?
A: 0.166

Q: With A31C G54A as the variant, how does the self-cleavage read?
A: 0.152

Q: With C16A U52G as the variant, how does the self-cleavage read?
A: 0.879

Q: Which self-cleavage does the source give for G29A U58G here?
A: 0.13

Q: With C38G A64C as the variant, how does the self-cleavage read?
A: 0.0814

Q: For C48G C66G, which self-cleavage is on record?
A: 0.105

Q: For G40A G42U, which self-cleavage is on record?
A: 0.127

Q: For U9G G21U, which self-cleavage is on record?
A: 0.674

Q: For C6A U58C, which self-cleavage is on record?
A: 0.697

Q: With U9C C16G as the variant, how does the self-cleavage read?
A: 0.63

Q: For U20G A28U, which self-cleavage is on record?
A: 0.643

Q: For U5G G17C, which self-cleavage is on record?
A: 0.35

Q: With G42U A71U as the variant, how does the self-cleavage read?
A: 0.217

Q: Which self-cleavage does the source give for U14C A26G here?
A: 0.919

Q: For A35C G40U, which self-cleavage is on record?
A: 0.149

Q: For A22C U67A, which self-cleavage is on record?
A: 0.195

Q: Which self-cleavage does the source give for U7C G40C here?
A: 0.156

Q: For G1A A11C, which self-cleavage is on record?
A: 0.139

Q: Which self-cleavage does the source give for U9G A61U here?
A: 0.211

Q: Which self-cleavage does the source give for U5A A39U here?
A: 0.0927

Q: For C4G A44C, which self-cleavage is on record?
A: 0.136

Q: Which self-cleavage does the source give for A31G G51U here?
A: 0.599

Q: Which self-cleavage does the source give for G1C C4A here?
A: 0.126

Q: Which self-cleavage does the source give for A31G C48A here?
A: 0.164

Q: With G13U A44C as the variant, how does the self-cleavage read?
A: 0.0986

Q: For C4U C50A, which self-cleavage is on record?
A: 0.203

Q: For U5A A59U, which self-cleavage is on record?
A: 0.153

Q: Which self-cleavage does the source give for U9C U62A here?
A: 0.238

Q: With G19A G29C as the variant, how does the self-cleavage read?
A: 0.184

Q: With C38A U67C as the variant, how does the self-cleavage read?
A: 0.0697

Q: Which self-cleavage does the source give for G1U A26U here?
A: 0.068

Q: For C12G A45C, which self-cleavage is on record?
A: 0.0684

Q: For A30U U58A, which self-cleavage is on record?
A: 0.115

Q: For C4A U52G, which self-cleavage is on record?
A: 0.22

Q: Which self-cleavage does the source give for U53G U67C here?
A: 0.136

Q: With U58G C66A as the variant, how does the self-cleavage read?
A: 0.281

Q: Which self-cleavage does the source give for G21U G42A here?
A: 0.158

Q: Which self-cleavage does the source give for C37G C65U here?
A: 0.334

Q: With U8G A45U as the variant, how does the self-cleavage read?
A: 0.118

Q: With G21A C38G as the variant, how does the self-cleavage read?
A: 0.239

Q: For C37U G51U, which self-cleavage is on record?
A: 0.81

Q: For C37U C50U, which self-cleavage is on record?
A: 0.289

Q: With A31C C50G as the variant, how does the self-cleavage read?
A: 0.0635

Q: With G21A C37U as the variant, how does the self-cleavage read?
A: 0.538

Q: Which self-cleavage does the source give for U2A C16G here?
A: 0.156

Q: For G25U G40U, which self-cleavage is on record?
A: 0.132

Q: For C10G U70A, which self-cleavage is on record?
A: 0.592

Q: With G29U G32U as the variant, how does the self-cleavage read?
A: 0.164

Q: For C10A G25U, which self-cleavage is on record?
A: 0.356

Q: For U7G A61G, which self-cleavage is on record?
A: 0.0998

Q: For G19U U52C, which self-cleavage is on record?
A: 0.818

Q: For A24G A71U, which self-cleavage is on record?
A: 0.667

Q: Which self-cleavage does the source give for A64U G69A here?
A: 0.115

Q: Which self-cleavage does the source give for G1U G56A here?
A: 0.127

Q: Which self-cleavage does the source give for U60G C66G here?
A: 0.261

Q: With C16G A64U as the variant, how does the self-cleavage read?
A: 0.172

Q: For C46U A49U, which self-cleavage is on record?
A: 0.239

Q: For U14A G32U, which self-cleavage is on record?
A: 0.108

Q: With C3A U33C as the variant, how does the self-cleavage read?
A: 0.191

Q: Which self-cleavage does the source give for C10A G51C here?
A: 0.566

Q: With A28C A45U as the variant, how does the self-cleavage read?
A: 0.134

Q: With U8C U53G as the variant, how does the self-cleavage read?
A: 0.509

Q: For A41C U55C, which self-cleavage is on record?
A: 0.484

Q: For A47C C50A, which self-cleavage is on record?
A: 0.29

Q: For C6A C50G, which self-cleavage is on record?
A: 0.175

Q: With C12G G21C as the variant, how does the self-cleavage read?
A: 0.47

Q: For U9G G19A, which self-cleavage is on record?
A: 0.548

Q: With U5C A71U as the variant, how does the self-cleavage read?
A: 0.564

Q: With A59C as the variant, how does the self-cleavage read?
A: 0.171

Q: Which self-cleavage does the source give for A41U here?
A: 1.29

Q: For A22G U63G, which self-cleavage is on record?
A: 0.171

Q: With G32U A64G as the variant, how does the self-cleavage read?
A: 0.162

Q: Which self-cleavage does the source give for G25A A35G here?
A: 0.738

Q: Which self-cleavage does the source give for U62G A71G here?
A: 0.143

Q: For G27C U62C, which self-cleavage is on record?
A: 0.12

Q: With A24U A71C as the variant, how does the self-cleavage read?
A: 1.27

Q: With G15U A30U as the variant, how does the self-cleavage read?
A: 0.146

Q: For C3A C50U, which self-cleavage is on record?
A: 0.236

Q: Which self-cleavage does the source give for C3G U60G here?
A: 0.0943

Q: Which self-cleavage does the source give for A11C C38G here?
A: 0.0848

Q: For U63C C66A, which self-cleavage is on record?
A: 0.23

Q: For A30C U33C, which self-cleavage is on record?
A: 0.1

Q: With G13A A23C as the variant, how does the self-cleavage read?
A: 0.571

Q: With U2A C46G as the variant, how does the self-cleavage read?
A: 0.0818

Q: For C4A U55G, which self-cleavage is on record?
A: 0.107

Q: With C6A G17A as the variant, how does the self-cleavage read?
A: 0.663

Q: For C12G G17U, which self-cleavage is on record?
A: 0.627

Q: With U14A A35U as the variant, how does the self-cleavage read?
A: 0.656

Q: For G42U A45U, which self-cleavage is on record?
A: 0.112

Q: Which self-cleavage does the source give for A30U A61U here?
A: 0.0778

Q: With U55A A64G as the variant, how does the self-cleavage read?
A: 0.195

Q: With A31G A44U as the variant, how does the self-cleavage read?
A: 0.205

Q: For A30C C46G, which self-cleavage is on record?
A: 0.0771

Q: For A44C C66U, which self-cleavage is on record?
A: 0.107

Q: With C46G G68U as the variant, how does the self-cleavage read?
A: 0.19

Q: For C10U A36G, which self-cleavage is on record?
A: 0.648

Q: Which self-cleavage does the source give for G1A U70G here?
A: 0.0827

Q: Which self-cleavage does the source give for G25C A35U here?
A: 0.228

Q: For C37A C38U, which self-cleavage is on record?
A: 0.0834

Q: With U2C G25A as the variant, how does the self-cleavage read?
A: 0.195

Q: For A35G A71G, which self-cleavage is on record?
A: 0.542

Q: Which self-cleavage does the source give for A28C C46G here?
A: 0.0967

Q: For G1A A35U, which self-cleavage is on record?
A: 0.142

Q: With C3G G25U as the variant, how does the self-cleavage read?
A: 0.138

Q: For U8C G15A, which self-cleavage is on record?
A: 0.743

Q: Which self-cleavage does the source give for C10U U58C here?
A: 0.771

Q: For C16A G32C, which self-cleavage is on record?
A: 0.0596

Q: For C38A G54A, which self-cleavage is on record?
A: 0.0977

Q: With G13A A44G as the variant, how does the self-cleavage read?
A: 0.125

Q: Which self-cleavage does the source give for G15U A39G here?
A: 0.245

Q: With C38U U60G as the variant, how does the self-cleavage read?
A: 0.431

Q: With C18A G19A as the variant, how does the self-cleavage read?
A: 0.886

Q: With G21U U63G as the variant, how does the self-cleavage read?
A: 0.248

Q: With G19C A44U as the variant, how does the self-cleavage read?
A: 0.0473

Q: For A22C A59C, which self-cleavage is on record?
A: 0.0825

Q: With C4A U67G as the variant, how does the self-cleavage read?
A: 0.144

Q: Which self-cleavage does the source give for C4U G57A here?
A: 0.155

Q: For C38A G42A, which self-cleavage is on record?
A: 0.111

Q: With C4A G21C as the variant, how does the self-cleavage read?
A: 0.175

Q: Which self-cleavage does the source give for G21C G34C here?
A: 0.992

Q: With A23U C66A as the variant, how does the self-cleavage read?
A: 0.294

Q: With G21U A30G as the variant, how does the self-cleavage read?
A: 0.149

Q: Which self-cleavage does the source give for G13A A71G here?
A: 0.912

Q: With C46G U60A as the variant, how does the self-cleavage read?
A: 0.091

Q: With A41G A71C as the variant, how does the self-cleavage read?
A: 1.34

Q: With U8A C66G as the variant, how does the self-cleavage read?
A: 0.101

Q: Which self-cleavage does the source give for A64U A71U here?
A: 0.305

Q: Which self-cleavage does the source give for G1A A71C here?
A: 0.435

Q: For A22G C50U, which self-cleavage is on record?
A: 0.362

Q: With U8C A71C as the variant, how does the self-cleavage read?
A: 1.11

Q: With A45C U62C as the variant, how does the self-cleavage read?
A: 0.141

Q: For G21A U53C, which self-cleavage is on record?
A: 0.739

Q: Which self-cleavage does the source give for G15C A36G here?
A: 1.06

Q: With U53C C66U as the variant, how does the self-cleavage read?
A: 0.69

Q: Which self-cleavage does the source give for U5A C48G here?
A: 0.0819
